# Measurements taken from IntAct's records for PubMed 19427866.
# Target: T1, nbr1_human NBR1 (UniProt Q14596)
# T1 sequence: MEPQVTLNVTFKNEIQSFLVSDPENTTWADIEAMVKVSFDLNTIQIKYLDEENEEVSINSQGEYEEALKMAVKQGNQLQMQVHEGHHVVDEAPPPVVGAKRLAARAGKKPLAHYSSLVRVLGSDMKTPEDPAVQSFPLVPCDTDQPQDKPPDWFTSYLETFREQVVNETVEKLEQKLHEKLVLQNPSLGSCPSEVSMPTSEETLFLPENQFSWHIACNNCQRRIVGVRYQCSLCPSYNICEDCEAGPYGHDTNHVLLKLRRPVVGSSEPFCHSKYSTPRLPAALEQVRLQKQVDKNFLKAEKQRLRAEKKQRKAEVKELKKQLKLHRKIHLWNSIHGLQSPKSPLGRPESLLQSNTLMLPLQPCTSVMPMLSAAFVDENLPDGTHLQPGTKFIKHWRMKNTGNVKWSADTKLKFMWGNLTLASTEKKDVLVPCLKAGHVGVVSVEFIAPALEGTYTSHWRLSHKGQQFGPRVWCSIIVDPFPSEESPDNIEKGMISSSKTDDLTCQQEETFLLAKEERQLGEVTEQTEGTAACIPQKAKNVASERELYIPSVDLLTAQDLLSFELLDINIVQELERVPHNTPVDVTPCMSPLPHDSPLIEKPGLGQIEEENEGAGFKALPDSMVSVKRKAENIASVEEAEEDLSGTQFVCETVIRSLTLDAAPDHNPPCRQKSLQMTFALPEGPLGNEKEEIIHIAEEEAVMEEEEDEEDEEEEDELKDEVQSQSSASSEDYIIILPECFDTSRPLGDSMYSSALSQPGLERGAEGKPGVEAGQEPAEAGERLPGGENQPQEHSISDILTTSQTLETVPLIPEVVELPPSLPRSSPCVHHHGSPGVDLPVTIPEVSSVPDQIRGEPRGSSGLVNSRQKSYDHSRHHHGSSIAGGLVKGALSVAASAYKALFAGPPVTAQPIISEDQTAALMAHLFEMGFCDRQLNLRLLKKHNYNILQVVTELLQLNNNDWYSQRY
row,effect of a mutation on the interaction,Substance
1,decreasing interaction,Polyubiquitin-C (Homo sapiens) (from UniProt P0CG48) K33R
2,decreasing interaction,Polyubiquitin-C (Homo sapiens) (from UniProt P0CG48) K48R
3,decreasing interaction,Polyubiquitin-C (Homo sapiens) (from UniProt P0CG48) K63R
